From patent publication US20250092124A1 (YUNNAN BAIYAO GROUP, published 2025)

Experiments:
[1] = target: T1, GDF15-HIS (ACROBiosystems, CAT #: GD5-H5149) (human, UniProt Q99988 197-308); test: ELISA, GDF15-HIS coated
T1 construct: Bought protein; also called GDF15 (ACROBiosystems, GD5-H5149); human GDF15; not shown: His tag
T1 sequence (looked up): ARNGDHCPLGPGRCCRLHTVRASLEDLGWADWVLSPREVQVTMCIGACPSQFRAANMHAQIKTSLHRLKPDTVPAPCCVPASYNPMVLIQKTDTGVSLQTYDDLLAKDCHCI
Protocol: The experiment was performed as detailed in Example 2, except that the coating protein was GDF15-HIS (ACROBiosystems, CAT #: GD5-H5149), and the antibodies to be tested (the humanized antibodies), negative control antibody (hIgG1), positive control antibodies Ponsegromab (Pfizer; Drug Bank: D11909) and AV380-hlgG1 (the heavy chain and light chain constant regions of AV380-mIgG1 were replaced with the constant regions of human IgG, i.e., SEQ ID NO. 5 and SEQ ID NO. 6) were added to each well of the coated plate.

cynoGDF15-mFC = target: T2, cynoGDF15-mFC (monkey (cyno); mouse, UniProt G7PWZ3 197-308); test: ELISA, cynoGDF15-mFC coated
T2 construct: also called monkey GDF15 (cynoGDF15)
T2 sequence (looked up): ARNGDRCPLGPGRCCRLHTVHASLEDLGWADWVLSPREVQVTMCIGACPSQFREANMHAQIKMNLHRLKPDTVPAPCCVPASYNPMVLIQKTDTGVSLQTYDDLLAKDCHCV
Protocol: The experiment was performed as detailed in Example 2, except that the coating protein was cynoGDF15-mFC (GDF15: Genbank accession number EHH29815.1; mFC: Genbank accession number AAH31470.1), and the antibodies to be tested (the humanized antibodies), negative control antibody (hIgG1), and positive control antibodies Ponsegromab and AV380-hIgG1 were added to each well of the coated plate.

[2] = target: T1, GDF15-HIS (ACROBiosystems, CAT #: …); test: ELISA on human GDF15, antibody after 2 weeks at 37 °C in PBS
Protocol: (§1) […] of the antibodies to be tested (final concentration 1 mg/ml) were added to 200 μl of plasma and PBS, respectively, tightly sealed and placed at 37° C. for 2 weeks. The change of protein binding activity was detected by ELISA.

[3] = target: T1, GDF15-HIS (ACROBiosystems, CAT #: …); test: BLI (ForteBio Octet), antibody immobilised, GDF15 200-6.25 nM
[4] = target: T1, GDF15-HIS (ACROBiosystems, CAT #: …); test: ELISA on human GDF15, antibody after 2 weeks at 37 °C in plasma
Protocol: as §1

[5] = target: T1, GDF15-HIS (ACROBiosystems, CAT #: …); test: ELISA in stability test, antibody before treatment; coated antigen not named
[6] = target: T1, GDF15-HIS (ACROBiosystems, CAT #: …); test: ELISA in stability test, antibody after 40 °C for 1 week; coated antigen not named
Protocol: (§2) An appropriate amount of each antibody was taken and adjusted to 10 mg/mL, and was placed at 40° C. for 1 and 2 weeks. Protein aggregation was detected using SEC-HPLC, and protein binding activity change was detected by ELISA.

[7] = target: T1, GDF15-HIS (ACROBiosystems, CAT #: …); test: ELISA in stability test, antibody after pH 3.6 for 2-4 h; coated antigen not named
Protocol: An appropriate amount of each antibody was taken and adjusted to 5 mg/mL in storage buffer adjusted to pH 3.6 using an ultrafiltration tube. The antibodies were placed at room temperature for 2-4 hours, then protein aggregation was detected using SEC-HPLC, and protein binding activity change was detected by ELISA.

[8] = target: T1, GDF15-HIS (ACROBiosystems, CAT #: …); test: ELISA in stability test, antibody after 40 °C for 2 weeks; coated antigen not named
Protocol: as §2

[9] = target: T1, GDF15-HIS (ACROBiosystems, CAT #: …); test: ELISA in stability test, antibody after 5 freeze-thaw cycles; coated antigen not named
Protocol: An appropriate amount of each antibody was taken and adjusted to 10 mg/mL, followed by freezing at −80° C. for 10 min, and placing in an ice-water mixture to slowly thaw. The above procedure was repeated 5 times. Protein aggregation was detected using SEC-HPLC, and protein binding activity change was detected by ELISA.

GDF15-mFC protein [10] = target: T3, GDF15-mFC protein (human; mouse, UniProt Q99988 197-308); test: blocking ELISA as in Example 4, GFRAL-hIgG1 Fc coated (competitor), GDF15-mFC mixed with antibody
T3 construct: extracellular domain;domain: IgG2a-FC; also called GDF15-mFc fusion protein
T3 sequence (looked up): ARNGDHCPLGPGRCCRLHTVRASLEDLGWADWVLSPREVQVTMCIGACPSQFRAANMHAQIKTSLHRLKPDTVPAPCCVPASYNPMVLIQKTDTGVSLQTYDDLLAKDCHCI
Protocol: A fusion protein comprising the extracellular region of GFRAL protein (Genbank accession number NM_207410.2) and human IgG1-FC (Genbank accession number CAC20454.1) was diluted to […] with coating solution, followed by adding to ELISA plate at 50 μl/well and incubating at 4° C. overnight. The solution in the wells was discarded and the plate was washed 3 times with washing solution, each time for 3-5 minutes, and dried via tapping. 200 μl of blocking solution was added to each well followed by incubating at 4° C. overnight. The plate was washed 3 times with washing solution, and the coated plate may be stored at −20° C. or 4° C. for future use.
The antibodies to be tested, positive control antibody AV380-mIgG1 and blank control (PBS) were added to the wells. […] At the same time, GDF15-mFC protein (GDF15: Genbank accession number NM_004864.3; mFC: Genbank accession number AAH31470.1) was added at 20 ng/well and mixed with the antibodies to be tested. The wells were incubated at 37° C. for 1 hour, washed, and dried via tapping. Then the enzyme-labeled secondary antibody, horseradish peroxidase-labeled goat anti-mouse IgG (SIGMA, catalog number A9044-2 ml) was added to each well, at a dilution of 1:10000, 50-100 μl/well. The wells were incubated at 37° C. for 2 hours, washed, and dried via tapping. 100 μl of freshly prepared developing solution TMB was added to each well and incubated at 37° C. for 30 minutes. 2 mol/L H₂SO₄ was added to terminate the reaction, and the OD value was obtained on an enzyme-linked immunosorbent reader.
The experiment was performed as detailed in Example 4, except that the antibodies to be tested (the humanized antibodies), negative control antibody (hIgG1), and positive control antibodies Ponsegromab and AV380-hIgG1 were added to each well of the coated plate.

[11] = target: T1, GDF15-HIS (ACROBiosystems, CAT #: …); test: cell-based or functional assay
GDF15-mFC protein [12] = target: T3, GDF15-mFC protein; test: competitive ELISA, GFRAL-HIS coated (competitor), GDF15-mFc 0.3 µg/ml pre-incubated with antibody
Protocol: GFRAL-HIS protein (ACROBiosystems, GFA-H52H3) was dissolved in PBS at a concentration of […] and was used to coat ELISA 96-well plate one day before blocking the plate with 2% BSA in PBS. 53E5 (hz), and control antibodies Ponsegromab and AV380-hIgG1 were 3.16-fold diluted for 10 gradients with a starting concentration of 20 μg/ml. At the same time, GDF15-mFc protein was added at a final concentration of 0.3 μg/ml. After incubation at room temperature for 1 hour, the mixtures were added to 96-well plate coated with GFRAL-HIS. After incubated at room temperature for 1 hour, the plate was washed and then HRP-anti-mouse IgG was added to the plate. After incubation at room temperature for 1 hour, the HRP enzyme activity (OD450) was detected. The HRP enzyme activity represents the relative amount of GDF15-mFc protein bound to GFRAL. The OD450 values and antibody concentrations were plotted. The dose-effect curve was fitted using the log (agonist) vs. response-variable slope (four-parameter) Logistic model to calculate IC50.

Binder | EC50 [1] [µg/mL] | OD450.Max [1] [OD450] | EC50 (cynoGDF15-mFC) [µg/mL] | OD450.Max (cynoGDF15-mFC) [OD450] | EC50 [2] [µg/mL] | Kd [3] [pM] | koff [3] [s⁻¹] | kon [3] [M⁻¹ s⁻¹] | EC50 [4] [µg/mL] | EC50 [5] [µg/mL] | EC50 [6] [µg/mL] | EC50 [7] [µg/mL] | EC50 [8] [µg/mL] | EC50 [9] [µg/mL] | IC50 (GDF15-mFC protein [10]) [µg/mL] | OD450.Max (GDF15-mFC protein [10]) [OD450] | Bottom (luciferase activity fold, fitted curve), HEK293 SRE-LUC2-cRET-GFRAL reporter cells [11] | IC50, luciferase in HEK293 SRE-LUC2-cRET-GFRAL reporter cells stimulated with GDF15-His 5 ng/ml [11] [µg/mL] | IC50 (GDF15-mFC protein [12]) [µg/mL]
53A8(hz) (antibody, human IgG1, kappa, V domains shown, also called humanized antibody 53A8) VH: QVQLQESGPGLVKPSETLSLTCTFSGFSLSTSGMGVGWIRQPPGKGLEWLAHIRWDDVKRYNPALKSRLTISKDTSKSQISLKLSSVTAADTAVYYCAQMAWDWFAYWGQGTTVTVSS VL: DIQMTQSPSSLSASVGDRVTITCKASQNVDTDVAWYQQKPGQSPKALIYSASYRYSGVPSRFSGSGSGTDFTLTISSLQPEDFATYYCHQYNSYPTFGQGTRLEIKR | 0.0827 | 1.05 | 0.0775 | 1.03 | 0.113 | 266 | 0.000257 | 967000 | 0.0413 | 0.0412 | 0.0643 | 0.0691 | 0.0296 | 0.0673 | 0.283 | 1.1 |  |  | 
AV380-hIgG1 (antibody, also called AV380-hlgG1) heavy: not shown light: DIQMTQSPASLSASVGETVTITCRTSENLHNYLAWYQQKQGKSPQLLVYDAKTLADGVPSRFSGSGSGTQYSLKINSLQPEDFGSYYCQHFWSSPYTFGGGTKLEIKRTVAAPSVFIFPPSDEQLKSGTASVVCLLNNFYPREAKVQWKVDNALQSGNSQESVTEQDSKDSTYSLSSTLTLSKADYEKHKVYACEVTHQGLSSPVTKSFNRGEC | 0.0823 | 1.07 | 0.0741 | 1 |  | 84.5 | 6.91e-05 | 817000 |  |  |  |  |  |  | 0.231 |  | 1.03 | 0.0447 | 0.231
